# Data as given in article PMC9467883, “Autoinhibition of the GEF activity of cytoskeletal regulatory protein Trio is disrupted in neurodevelopmental disorder-related genetic variants” (The Journal of Biological Chemistry, 2022).
# B1: Human Trio GEF1 (domain or fragment)
# chain: not shown
# modifications: His tag omitted (used for Ni-NTA immobilization). The GEF1 limits are not printed: the C-terminus 1599 comes from the printed SR6-GEF1 construct (788-1599), and the N-terminus about 1284 follows the …
# B2: Human Trio SR6-GEF1 (domain or fragment)
# chain: not shown
# notes: Trio, human, spectrin repeats 6-9 appended to the GEF1 domain, 99 kDa; amino acids 788 to 1599 as stated for SR6-GEF1 in the modelling paragraph; Cloned into the pFastBac1 HTa vector; The limits 788-1599 are printed for the modelled SR6-GEF1, not in the cloning paragraph; also called His-SR6-GEF1; WT SR6-GEF1; source: Hi5 cells infected with baculovirus, purified (Ni-NTA, S200 Increase)
# What was measured:
# Human Rac1 [1] = biological target: Human Rac1 (human, UniProt P63000 1-192); assay: BLI; ForteBio BLItz; His-GEF1 (0.5 uM) or SR6-GEF1 (2 uM) loaded on Ni-NTA biosensors; nucleotide-free Rac1 at 4-5 concentrations in assay buffer (20 mM Hepes pH 7.25, 150 mM KCl, 5% glycerol, 0.01% TritonX-100, 1 mM DTT); Kd = koff/kon from the linear fit of kobs against Rac1 concentration; details: both partners purified
# Human Rac1 [2] = biological target: Human Rac1 (human, UniProt P63000 1-192); assay: as above; details: both partners purified; remark: listed apart in the source
binder,measurement,setting,value
B1,Kd,Human Rac1 [1],0.151 µM
B2,Kd,Human Rac1 [2],0.316 µM
